What all share (settings): scale: KASH6 per SUN1
Assay [1] has as its target SUN domain of human SUN1 (amino-acids 616-812) (human). The experiment in a line: SEC-MALS. On the technique in general: Size exclusion chromatography separates by hydrodynamic size, large species first.
The target is the same in assay [2]. Description: SEC-MALS. This is another data set of the same source.
For assay [3] the target is unchanged. The experiment in a line: crystal structure.
Assay [4] has the same target. Description: SEC-MALS. This is another data set of the same source.

Several values for one entry are separate records, joined by “and”; a condition that tells them apart may be missing. Identical values can stand only once.

As for EDSWTSLEHILWPFTRLRHNGPPPV [KASH6 core (human JAW1/LRMP amino-acids 531-555)], the stoichiometry N in assay [1] amounted to 1; in assay [2], 0.67.

Regarding TGQLFQKSVDAAPTQQEDSWTSLEHILWPFTRLRHNGPPPV [KASH domain of human JAW1/LRMP (amino-acids 515-555)], the stoichiometry N is 1 in assay [1]; 0.67 in assay [3]; 0.67 and 1 in assay [4].

As a reminder, the stoichiometry N is the number of molecules, sites or subunits per partner or assembly.

The values are drawn from paper doi:10.1101/2023.06.05.543797.
